Assay: soluble on expression in E. coli; label from the status in PepcDB or PDB records

Sequence | soluble on expression in E. coli
MIENHLYSLVTVVKYKLLPCLLAIFLTGCDRTEVTLSFTPEMASFSNEFDFDPLRGPVKDFTQTLMDEQGEVTKRVSGTLSEEGCFDSLELLDLENNTVVALVLDANYYRDAETLEKRVRLQGKCQLAELPSAGVSWETDDNGFVIKASSKQMQMEYRYDDQGYPLGKTTKSNDKTLSVSATPSTDPIKKLDYTAVTLLNNQRVGNVKQSCEYDSHANPVDCQLIIVDEGVKPAVERVYTIKNTIDYY | not soluble
GQDRSEATLIKRFKGEGVRYKAKLIGIDEVSAARGDKLCQDSMMKLKGVVAGARSKGEHKQKIFLTISFGGIKIFDEKTGALQHHHAVHEISYIAKDITDHRAFGYVCGKEGNHRFVAIKTAQAAEPVILDLRDLFQLIYELKQREELEKKA | soluble
MGHHHHHHSHMLFSRIFMAGAPKFIKQLLLDLRNEIYCTILIVGDFNAPLTALDRSSRQKVHKETMGLHCILEQMDLTYIYRTFHPTTAEYTLFSSAHGTFFKIDHIIGHENKSQ | not soluble
MRKEVEQLALMGAMPDETDEPTDVLIDKYADLLGKITKPITLDEAHILIKLFPPTALYGIEWTLLHLIESVYPETEFIKYKELINECNSVEFREMLVQRLNNSQQNKVTNK | not soluble
MTRAILFDLDGTLVDTRAASWQLFSETNLAFALGIDSREAFFRAFEGNFFESLAKLCPDPQRAAAVKAHFMELLRTRYHPALIPGMVDVVRALAPHSTLAVISTNGIEAIRRILVGADLANCFSHVFSGDVEPRKAVSIRRFLGDHRYAVHRACSPAYHDGEASHASLQAQDVVLVTDTVGDVREAREAGIRAIGVTWGMHSERQLLDAGAERVALWPQELVAWLRDADAPATSCGCSSGSADSCALPPAPAPAVRAAAAPPTGDPVREVARHRRERQLHTRLQAAAATAPAAPGASMASAASGPSARTELMSSLQRILREGDH | not soluble
SLNSVKRVGGSNRYGTAVQISKQMYSTASTAVIVGGSSYADAISAAPLAYQKNAPLLYTNSDKLSYETKTRLKEMQTKNVIIVGGTPAVSSNTANQIKSLGIS | not soluble
MSLRSYLGSISTSKTEVNSMKMHVLKLLIPTMALLLSACASLPPELGNPDDKSVVTQYSAWLERDPATQSPVRMGGVVANISNQKDRTRVELVNLPIDSAGRPNIHQEPQGRFVAYVPGFLDPITYGEGRLLTLYGTTAPSEQGKVGDYEHTYPVMNAQGYHLWRVEERVEVDDIGPYMFPCRGFYCWPRTMPERDGKIIQEVKEGGSHHHHHH | soluble
MCTELEPHQRLKKIIDEIGVSQTKLACKYLGRATINKIIRGERPLNAAQAYKFIQRFKDFGYNADIELILGIPTKTIDSTVKKFLSNTKKHYLEFDKLIDKLYKDKAIEVIWNVIEKLDIQDVYKNANIILKYLTKLMQYDLDADIYLKVNIELIKIYTATANYERAITAFNSLKNFSILDRETKVKCFLNVALAYYNLREYKSSIDIASRVMKLKIFDKYYFKASIIKANVLYTDGRINESIKEYEKIAIKAEKYHFIEYVATSESNIGYVFTEQNKFNEAKLHLDEAMKLFDSLNNYYKLNVYDNVFGFKIKNNTADFDTFKKVILLAYDTNDKFRIKNNVKQFVNYAIRNKKSKEIFTKIIDFLNPKGIDLDSSLKLEIMEYVSGNTFESVLKLEHHHHHH | not soluble
MSLDQYGNIRAMGIHSLLYCERLFYLEEVEGILVADDRVYAGRTLHEELEPNEDFSGRIESFHYTSEKLEVSGKVDRIQKRDGDWIPYEHKRGRARIGTNGPEAWESDQCQVTVYALLLEEATGRNISEGKIRYHGSKDLVKIEIDEELRSKALKTIDRAKELSTSTNRPPVAQNENLCKNCSLAPVCLPEETRVITENEYEPIRLFPEKREGHHHHHH | soluble
AASSLDELVALCKRRGFIFQSSEIYGGLQGVYDYGPLGVELKNNLKQAWWRRNVYERDDMEGLDASVLTHRLVLHYSGHEATFADPMVDNAKARYWTPPRYFNMMFQDLRGPRGGRGLLAYLRPETAQGIFVNFKNVLDATSRKLGFGIAQIGKAFRNEITPRNFIFRVREFEQMEIEYFVRPGEDEYWHRYWVEERLKWWQEMGLSRENLVPYQQPPESSAHYAKATVDILYRFPHGSLELEGIAQRTDFDLGSHTKDQEALGITARVLRNEHSTQRLAYRDPETGKWFVPYVIEPSAGVDRGVLALLAEAFTREELPNGEERIVLKLKPQLAPIKVAVIPLVKNRPEITEYAKRLKARLLALGLGRVLYEDTGNIGKAYRRHDEVGTPFAVTVDYDTIGQSKDGTTRLKDTVTVRDRDTMEQIRLHVDELEGFLRERLRW | soluble
ATRRRSLSCYVWIATFGMRYTHEFNKVIRDYVRGHASQIRKRLLPKALEVFASHRIAGDCVVVATGAPPELVREILALVADQQEVVPVIGSSIVPRLGAIIVARHCHHEEKMRMLREQGYGDVAVAYSDSTADLPLLMAAKVPVVVNPKPKREKLFRRVLQP | not soluble
MGSDKIHHHHHHMNNLIVTPGYASQFSCIGSACEDSCCHDWTIIFDKKSYKNTLNHPKLASLAKEAFIETKTDANQWAQIKLNANGTCPFVNEQQLCAIHAAAGETALSHTCKTYPRINNVIATTKYESLSLSCPEAARLVLFDANAFQFEAKSGGAKRPTAANPAWLEKTYDYSLDLLINMGVDWQQALMAIGLLVKVSDQVRQNALPIAQIDQRFEQLILLAQTKEITAQYQKIPYTPQPQTHAFVSIHDQLCKLHSRSLKPRFTSLNEAIGLLCNEGNQYQIDHLNKAWEEKALPALSNYQDLFDRYILYSLYHEHFPMIHSQQPWMAFRLLVIDCFMIRCYLSAMAFKNNGLTESDIVLCFQLYSVVRQHKAKFAEGINQTLQECGIDSIPAAISLLKTS | not soluble
MDMVAQALELSRKPHVVIATPGRLADHLRSSNTFSIKKIRFLVMDEADRLLEQGCTDFTVDLEAILAAVPARRQTLLFSATLTDTLRELQGLATNQPFFWEAQAPVSTVEQLDQRYLLVPEKVKDAYLVHLIQRFQDEHEDWSIIIFTNTCKTCQILCMMLRKFSFPTVALHSMMKQKERFAALAKFKSSIYRILIATDVASRGADQPPLPPGAWTSLRYRWSSTTTPPGSPRSTSTESAGRPVQGGRVRPSRW | soluble
RQFQILLQQINMTDDTFMTYFEHGEIKKLTIHKASKSWHFHFQFKSLLPFQIYDTLTTRLTQSFAHIAKVTSSIEVQDAEVSESIVQDYWSRCIEELQGISPPIISLLNQQKPKLKGNKLIVKTKTDTEAAALKNKYSSMIQA | not soluble
MNEIKNLKQYSKAAERFEGAHLLCPGCAHGMIVREVLNATDDPLILSSATGCLEVSTAVYPYTSWDVPWIHIGFENSSTAVAGAEAMYKALERKGKLYSEKKPKFVAFGGDGSTYDIGFQYISGCFERGHNMTYICLDNEVYANTGGQRSGSTPIGASTTTTPAGRVSYGKKDKKKDILQIMAAHGAPYVAQVAPNKWKDMAKKLKMALETEGPTFINAMSACTTEWKFESNLTVEVSDLAVDSLVFPLYEIINGTELNITYRPKNIVPVRDYLAAQGRFKHLFKKENEHIIEQWQKEVDARWVYLQKREEARV | not soluble
MLESVHQASAYTADVQPADVVIVGAGAAGLAAAHHLTRAGLTTAVLEAAPNVGGRMSTEKVDGFRLDRMGQLLSTAYPELRSTPGLDALPLREFSPGVLVHSDGHLHRVGEPGTPRSARGALTAARALASAPRQQRTPRAPRTQGASRPGLLGSPVGQSRLAGALARLAATPPDRLLSRPELPAARALSALGLPPRTIDGFLRPLLAALLCDPALETSSRCADLALRAFVTGRLCVPEGGADVLPELLAATLPPGTVHTGVRVTAVSTTSVTTKDHGELRCRAVLLATGARAAARLLPGLRVPGFHPVTVLHHTTDEPPLGDPALVLDAERGGPVAHTAVISRVDPSRAPAGRALVSSTVLGTPPPPDRLEAAVRAQLARLYRTSTARWELLAIHHDSEAVPAMPPPHDPRRPVRLLAGLYICGDHRDTSTVQGALRSGRRAAHALLTDVGAGQTSLEEPLETAALEHHHHHH | not soluble
